Test results taken from publication PMC6662825, “The MTR4 helicase recruits nuclear adaptors of the human RNA exosome using distinct arch-interacting motifs” (Nature Communications, 2019).
Changes are numbered by the printed parent chain. One block for each binder: values may come before it.

Assays:
Settings in all cases: both partners purified
MTR4-∆N = molecular target: T1, MTR4-∆N (human, UniProt P42285 75-1042); assay: ITC; 500 µM NVL injected into 40 µM MTR4-∆N; 25 °C; 50 mM Hepes/NaOH pH 7.5, 150 mM NaCl, 0.5 mM TCEP
T1 construct: Used in ITC, named without GST; the tag was probably cleaved ('when appropriate'); also called MTR4-∆N (the reactant); source: E. coli BL21 star (DE3), purified (Ni-NTA, heparin, SEC)
T1 sequence (looked up): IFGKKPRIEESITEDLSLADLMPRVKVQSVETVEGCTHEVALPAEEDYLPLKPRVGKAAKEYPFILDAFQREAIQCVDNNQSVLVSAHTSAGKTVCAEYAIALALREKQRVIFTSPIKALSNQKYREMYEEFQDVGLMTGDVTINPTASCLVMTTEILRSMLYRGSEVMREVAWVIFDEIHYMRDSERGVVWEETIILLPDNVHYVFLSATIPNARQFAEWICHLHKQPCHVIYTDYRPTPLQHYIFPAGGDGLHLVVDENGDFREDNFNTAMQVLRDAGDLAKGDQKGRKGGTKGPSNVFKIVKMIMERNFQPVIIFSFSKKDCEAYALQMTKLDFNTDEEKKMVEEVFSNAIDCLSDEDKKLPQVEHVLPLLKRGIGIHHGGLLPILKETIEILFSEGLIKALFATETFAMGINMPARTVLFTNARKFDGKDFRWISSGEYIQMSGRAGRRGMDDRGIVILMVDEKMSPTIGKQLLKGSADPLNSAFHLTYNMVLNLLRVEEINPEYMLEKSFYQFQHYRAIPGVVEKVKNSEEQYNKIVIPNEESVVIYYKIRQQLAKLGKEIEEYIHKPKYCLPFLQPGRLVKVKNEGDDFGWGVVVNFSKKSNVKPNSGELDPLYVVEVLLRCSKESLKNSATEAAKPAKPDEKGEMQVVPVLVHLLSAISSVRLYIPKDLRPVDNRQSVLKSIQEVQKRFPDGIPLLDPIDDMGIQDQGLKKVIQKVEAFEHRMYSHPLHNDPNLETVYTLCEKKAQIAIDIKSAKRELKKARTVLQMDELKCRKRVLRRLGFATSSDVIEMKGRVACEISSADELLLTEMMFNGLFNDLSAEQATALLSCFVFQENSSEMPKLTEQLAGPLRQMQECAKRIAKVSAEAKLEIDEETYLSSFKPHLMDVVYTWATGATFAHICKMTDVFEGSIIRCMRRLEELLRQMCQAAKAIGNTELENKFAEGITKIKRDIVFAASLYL

MTR4∆N2 (70–1042) = molecular target: T2, MTR4∆N2 (70–1042) (human, UniProt P42285 70-1042); assay: crystal structure; MTR4∆N2 (70–1042) mixed with 2 molar excess of NVL (167–216), with ADP and MgCl2; 3.07 Å, space group P6(1); PDB 6RO1
T2 construct: human MTR4; Crystallised with ADP and MgCl2 in the buffer; source: E. coli, purified; GST fusion cleaved with TEV; not shown: GST, N-terminal, cleaved
T2 sequence (looked up): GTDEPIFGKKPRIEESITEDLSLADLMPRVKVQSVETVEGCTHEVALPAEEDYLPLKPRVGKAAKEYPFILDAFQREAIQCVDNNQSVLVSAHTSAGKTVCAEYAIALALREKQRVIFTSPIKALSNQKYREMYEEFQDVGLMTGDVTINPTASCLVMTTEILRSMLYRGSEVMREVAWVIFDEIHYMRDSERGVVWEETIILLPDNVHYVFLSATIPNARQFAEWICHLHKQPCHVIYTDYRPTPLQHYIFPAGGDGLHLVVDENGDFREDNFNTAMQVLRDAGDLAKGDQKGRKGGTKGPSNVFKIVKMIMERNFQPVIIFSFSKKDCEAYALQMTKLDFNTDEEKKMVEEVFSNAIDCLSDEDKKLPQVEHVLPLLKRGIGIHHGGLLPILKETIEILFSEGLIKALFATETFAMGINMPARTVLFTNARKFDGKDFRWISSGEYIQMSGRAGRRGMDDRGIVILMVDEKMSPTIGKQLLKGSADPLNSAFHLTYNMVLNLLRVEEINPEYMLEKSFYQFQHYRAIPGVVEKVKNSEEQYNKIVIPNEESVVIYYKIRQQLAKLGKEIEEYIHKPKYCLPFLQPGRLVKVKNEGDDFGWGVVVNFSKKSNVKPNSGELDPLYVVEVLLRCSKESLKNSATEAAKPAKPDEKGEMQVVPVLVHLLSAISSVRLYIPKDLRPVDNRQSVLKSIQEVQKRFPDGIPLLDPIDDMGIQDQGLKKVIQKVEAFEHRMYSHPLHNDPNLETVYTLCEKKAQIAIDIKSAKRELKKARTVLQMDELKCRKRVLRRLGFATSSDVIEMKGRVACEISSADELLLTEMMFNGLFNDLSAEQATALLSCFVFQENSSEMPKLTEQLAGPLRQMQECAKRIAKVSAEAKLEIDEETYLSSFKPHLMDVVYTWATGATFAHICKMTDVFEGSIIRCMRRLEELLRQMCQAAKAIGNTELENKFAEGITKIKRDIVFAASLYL

MTR4-KOW = molecular target: T3, MTR4-KOW (human, UniProt P42285 645-787); assay: NMR titration; 1H-15N HSQC of 53 μM 15N-labelled MTR4-KOW with 0.25, 0.5, 1, 2 and 6 molar equivalents of unlabeled NVL^167–216; 298 K; phosphate buffered saline, 10% D2O
T3 construct: human MTR4 KOW domain, residues 645–787; Named without GST in MST, NMR and ITC; the methods say the His-GST tag was cleaved with 3C protease 'when appropriate', so it was probably removed; Isotope-labelled for NMR; also called unlabeled MTR4 KOW; 15N-labelled MTR4-KOW; source: E. coli BL21 star (DE3), purified (Ni-NTA, heparin, SEC); minimal medium with 15N/13C for NMR
T3 sequence (looked up): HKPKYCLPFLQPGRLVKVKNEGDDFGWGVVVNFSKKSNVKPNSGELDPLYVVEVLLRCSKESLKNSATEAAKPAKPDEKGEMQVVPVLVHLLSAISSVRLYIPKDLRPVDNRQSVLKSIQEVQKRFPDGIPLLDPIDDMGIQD

GST-MTR4-∆N = molecular target: T4, GST-MTR4-∆N (human, UniProt P42285 75-1042); assay: pull-down; GST-MTR4∆N (WT or mutants) as bait, 30 μM, with 60 μM Trx-NOP53^84–123 in 30 μl, glutathione sepharose; 50 mM Hepes pH 7.5, 150 mM NaCl, 5% glycerol, 0.05% NP40, 1 mM DTT, 4 °C; SDS-PAGE, Coomassie
T4 construct: Tag is cleavable with 3C protease; kept for the GST pull-downs; also called GST-tagged MTR4∆N; source: E. coli BL21 star (DE3), purified (Ni-NTA, heparin, SEC); not shown: 6xHis-GST, N-terminal, kept
T4 sequence (looked up): T1 sequence (looked up)

GST-MTR4∆N R743E = molecular target: T5, GST-MTR4∆N R743E (human, UniProt P42285 75-1042, R743E); assay: as above
T5 construct: also called R743E mutant; source: E. coli BL21 star (DE3), purified (Ni-NTA, heparin, SEC); not shown: 6xHis-GST, N-terminal, kept
T5 sequence (looked up): T1 sequence (looked up) with R669E

GST-MTR4∆N F677E = molecular target: T6, GST-MTR4∆N F677E (human, UniProt P42285 75-1042, F677E); assay: as above
T6 construct: source: E. coli BL21 star (DE3), purified (Ni-NTA, heparin, SEC); not shown: 6xHis-GST, N-terminal, kept
T6 sequence (looked up): T1 sequence (looked up) with F603E

binding result (MTR4-∆N): binds
binding result (MTR4∆N2 (70–1042)): binds
binding result (MTR4-KOW): binds
B1: NVL^167–216 (peptide, UniProt O15381 167-216, looked up)
chain: KDSEGGWFIDKTPSVKKDSFFLDLSCEKSNPKKPITEIQDSKDSSLLESD
notes: Named without Trx in ITC, NMR and crystallisation; the methods say tags were cleaved with 3C protease 'when appropriate', so the tag was probably removed; also called NVL peptide; source: E. coli BL21 star (DE3), purified (Ni-NTA, SEC)

binding result (GST-MTR4-∆N): binds
binding result (GST-MTR4∆N R743E): binds
binding result (GST-MTR4∆N F677E): binds
B2: Trx-NOP53^84–123 (domain or fragment)
chain: not shown
notes: human NOP53 (also known as GLTSCR2), residues 84–123; also called human Nop53 orthologue; human Nop53; not shown: Trx, N-terminal, kept
